Measurements published in US20160075743A1 (AGRESEARCH, published 2016).

Key:
[1] = biological target: T1, Yersinia entomophaga YenB (TcB component of the Yen-Tc toxin complex) (Yersinia entomophaga, UniProt B6A880 1-1487); assay: X-ray crystal structure (figure legend)
T1 sequence: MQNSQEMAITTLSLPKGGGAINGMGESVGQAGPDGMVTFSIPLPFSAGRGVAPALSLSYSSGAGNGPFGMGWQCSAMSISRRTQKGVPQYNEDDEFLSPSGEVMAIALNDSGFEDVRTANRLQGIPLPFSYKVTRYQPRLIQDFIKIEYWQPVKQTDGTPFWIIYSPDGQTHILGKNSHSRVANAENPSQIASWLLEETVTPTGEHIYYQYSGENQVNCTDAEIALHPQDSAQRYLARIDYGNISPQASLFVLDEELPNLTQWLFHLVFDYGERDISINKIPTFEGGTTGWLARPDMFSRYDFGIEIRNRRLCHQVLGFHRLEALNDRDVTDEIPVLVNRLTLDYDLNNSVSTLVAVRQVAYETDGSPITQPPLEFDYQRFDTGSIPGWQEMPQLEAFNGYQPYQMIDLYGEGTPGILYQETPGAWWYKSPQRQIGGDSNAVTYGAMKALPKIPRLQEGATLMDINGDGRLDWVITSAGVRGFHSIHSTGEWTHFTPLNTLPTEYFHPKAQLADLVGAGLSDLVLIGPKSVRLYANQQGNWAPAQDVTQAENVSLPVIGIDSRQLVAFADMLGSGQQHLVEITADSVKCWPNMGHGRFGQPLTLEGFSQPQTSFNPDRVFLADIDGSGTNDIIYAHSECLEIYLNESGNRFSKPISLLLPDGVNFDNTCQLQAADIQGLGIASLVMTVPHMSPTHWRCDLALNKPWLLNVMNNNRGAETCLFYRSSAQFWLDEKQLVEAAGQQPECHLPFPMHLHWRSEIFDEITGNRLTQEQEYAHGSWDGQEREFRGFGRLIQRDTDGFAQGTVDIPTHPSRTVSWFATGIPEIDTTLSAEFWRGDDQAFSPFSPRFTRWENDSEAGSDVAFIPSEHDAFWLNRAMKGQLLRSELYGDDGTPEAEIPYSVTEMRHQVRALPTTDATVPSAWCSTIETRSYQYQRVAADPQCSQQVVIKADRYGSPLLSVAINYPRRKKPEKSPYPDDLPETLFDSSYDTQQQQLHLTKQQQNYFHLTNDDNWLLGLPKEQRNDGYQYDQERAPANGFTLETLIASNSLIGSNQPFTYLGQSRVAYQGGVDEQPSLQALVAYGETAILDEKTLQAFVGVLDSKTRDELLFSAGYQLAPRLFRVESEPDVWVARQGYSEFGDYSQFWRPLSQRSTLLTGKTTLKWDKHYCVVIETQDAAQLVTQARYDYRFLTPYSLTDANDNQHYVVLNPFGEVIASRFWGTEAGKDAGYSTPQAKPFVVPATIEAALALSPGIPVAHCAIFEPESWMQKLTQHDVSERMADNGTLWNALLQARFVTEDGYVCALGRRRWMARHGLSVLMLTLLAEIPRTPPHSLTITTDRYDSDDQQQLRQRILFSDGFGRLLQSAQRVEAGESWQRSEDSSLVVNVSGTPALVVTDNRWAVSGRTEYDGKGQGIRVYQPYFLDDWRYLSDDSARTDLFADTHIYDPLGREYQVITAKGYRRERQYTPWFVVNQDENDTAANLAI

[2] = biological target: T2, YenB/YenC2-N complex (hollow shell) (Yersinia entomophaga, UniProt B6A880 1-1487; B6A882 1-690); assay: SAXS and crystal structure; encapsulation in the shell
T2 construct: Heterodimer of YenB and YenC2-N. It is used here as the partner that encapsulates YenC2-C or GFP; also called TcB:TcC shell; BC shell

[3] = biological target: T1, Yersinia entomophaga YenB (TcB …); assay: co-expression, co-purification by Ni-affinity and SEC
[4] = biological target: T1, Yersinia entomophaga YenB (TcB …); assay: co-expression in E. coli, size-exclusion chromatography
[5] = biological target: T1, Yersinia entomophaga YenB (TcB …); assay: purification after precipitation of the C-terminal domain at pH 4.5-5.0

B1: conserved N-terminal 76 kDa portion of YenC2 (YenC2-N) (other)
chain: MDIQLFSKTPSVTVFDNRGLSVRDIAYRRHPDTPKVTEECITYHQFDFRGFLAQSLDPRLNHKEVTNFSYLTDLNGNIIYTQSVDAGNTLVLNDTEGRSVIAMTNISRGENGKDDLSLAVTRTFQYENAPLPGRPLSVTEQVNGENARITEHFVYAGNTPQEKNLNLAGQCVSYYDAAGLIQTDSVSLTGKPLSVSRKLLKNLDDTNILADWQGNDTSAWNSLLATEIYTTVTRTDAAGAVLTTIDAVGNQQRVAFDIAGQLSASWLTLKGGQEQVIIKVLTYSAAGQKLREEGGNGVVTTYTYEAETQRLIGIKTERPNGHAAGAKVLQDLRYEYDPVGNVLSITNDAEETRFWRNQKVVPENAYRYDSLYQLVSASGREVAGAGQQGSDLPSPLVPLPSDSSVYTNYTRTYTYDSAGNLMRIRHSAPATNNNYTLNITVSERSNRGVMSSLTENPADVDALFTASGSQKCLQQGQSLIWTPRGELRTVLLVARGETADDSESYRYDGSSQRILKISSQQTNHSARVQRALYLPGLEWRTMTGGVAEAENLQVICIGEAGRAQVRVLHWESGKPDGIINDQIRWSYDNLTCSSGLEVDGDGLVISMEEYYPYGGTAVWAARSHIETAYKTVRYSGKERDATGLYYYGFRYYQPWAGRWLSADPAGTVDGLNLYRMVRNNPLRLTDPDGM
notes: Made by self-cleavage of YenC2 after M690 when co-expressed with YenB; The C-terminal fragment was removed at pH 4.5; also called YenC2NTR; YenC2 - N term
B1: binds [1].

B2: C-terminal region of YenC2 (YenC2-C) (other)
chain: APLDWLDLDTTNASRDIVKAIYQLNQIDGPHRGVRDTYQRMTESTGMILQETLNNEAVLKGIKQKDKEKKSRGMKFTNSKLKTYAAHAGVLNTLQPDPVYKDGFLNLPGSLGNKNTFPGVELIEDKVKPSLSQYHPDKLGKSQRWKPESSLGYYRVADTEAFITGIRSQYKSSGTDLHAVVEGRIRDHLLANNNVLPKMAGIAGLHAEVQALNYIISNPDIEGGNAERLNGSYIFTQRLVGDVNQDFPACYNCSGIISGLENVMTGRVNNDVRLKRRKSF
notes: also called YenC-C; TcC-C
B2: binds [2].

B3: Yersinia entomophaga YenC2 (TcC component) (other)
chain: MDIQLFSKTPSVTVFDNRGLSVRDIAYRRHPDTPKVTEECITYHQFDFRGFLAQSLDPRLNHKEVTNFSYLTDLNGNIIYTQSVDAGNTLVLNDTEGRSVIAMTNISRGENGKDDLSLAVTRTFQYENAPLPGRPLSVTEQVNGENARITEHFVYAGNTPQEKNLNLAGQCVSYYDAAGLIQTDSVSLTGKPLSVSRKLLKNLDDTNILADWQGNDTSAWNSLLATEIYTTVTRTDAAGAVLTTIDAVGNQQRVAFDIAGQLSASWLTLKGGQEQVIIKVLTYSAAGQKLREEGGNGVVTTYTYEAETQRLIGIKTERPNGHAAGAKVLQDLRYEYDPVGNVLSITNDAEETRFWRNQKVVPENAYRYDSLYQLVSASGREVAGAGQQGSDLPSPLVPLPSDSSVYTNYTRTYTYDSAGNLMRIRHSAPATNNNYTLNITVSERSNRGVMSSLTENPADVDALFTASGSQKCLQQGQSLIWTPRGELRTVLLVARGETADDSESYRYDGSSQRILKISSQQTNHSARVQRALYLPGLEWRTMTGGVAEAENLQVICIGEAGRAQVRVLHWESGKPDGIINDQIRWSYDNLTCSSGLEVDGDGLVISMEEYYPYGGTAVWAARSHIETAYKTVRYSGKERDATGLYYYGFRYYQPWAGRWLSADPAGTVDGLNLYRMVRNNPLRLTDPDGMAPLDWLDLDTTNASRDIVKAIYQLNQIDGPHRGVRDTYQRMTESTGMILQETLNNEAVLKGIKQKDKEKKSRGMKFTNSKLKTYAAHAGVLNTLQPDPVYKDGFLNLPGSLGNKNTFPGVELIEDKVKPSLSQYHPDKLGKSQRWKPESSLGYYRVADTEAFITGIRSQYKSSGTDLHAVVEGRIRDHLLANNNVLPKMAGIAGLHAEVQALNYIISNPDIEGGNAERLNGSYIFTQRLVGDVNQDFPACYNCSGIISGLENVMTGRVNNDVRLKRRKSF
notes: Expressed as the whole protein; When co-expressed with YenB it self-cleaves after M690 into YenC2-N and YenC2-C, and both fragments stay in the complex
B3: binds [3].

B4: Yersinia entomophaga YenC1 (TcC component) (other)
chain: MNQFDSALHQGTPGVSVLDNRGHVIRELRYYRHPDTPQEIAERIAFHQYDSYGFISQSIDPRLAERRKQDSSVKPNLSYFTALSGEVLRTDGVDAGTIFSLNDIAARPAISISATGVSHTWQYEGENRPGRVLSRSEREKDREERIIERFYWAGSDASQKANNLAGQCLRHYNSAGLNQTLSIALTGTPISACFQPLLESAEPEWQGTNESAWLELLTPEIFTTYNRADANGETLVQTDAMGNIQRLAYDVAGFLKSSWLSLKGGQEQIIVKSLTYSAAGQKLQEEHGNGVLTTYSYEAETQRLIGIRTERPAGHLSGARVFQDLRYTYDPVGNVLRITNDAEATRFWRNQKVVPENTYIYDTLYQLVSANGREMANIPQQSSQLPTLSPIDNNAYTNYIRNYHYDSAGNLMQIRHTSAAANNSYTTNITVSKYSNRAVLSSLTDDVDKVEAFFDAAGRQNQLLPGQTLSWNARGELAKVTPVARDGQESDSETYRYDANSQRVSKMAIQQSNNNTQTRRVLYLAGLERRTIHQGNTLFETLLVVKIGEAGRAQVQAMHWELGQPTEVANDELRYSYDNLIGSSGLEVDGTGQLISQEEYYPYGGTAVWMARSQREASDKAYGYSGKERDATGLYYYGFRYYQPWAGRWLSADPAGTIDGLNLFRMVRNNPIVLHDPDGLAPGFFERISSFRKKDTLTISSLKGTGPFYTRSESEIDIDFLFSRQDRDKDFPPQNHKELSAEDRREVLEVSSGENITSANKSSKWYAGTHWETKPLKNNTDLVVLHNGVQGAAGININLNDIKPGRSVLVTAGTLTGCTMITGVKGNNFYALHAGTGTPSENWVTGEHGVTDNFRMLNKLIPDAGIDLNPEAVNDSLLTILDYFDNGTIAYNGKKGSEIHRDADNILNYRTTGYENTVGVSFSLLTKDKNGEVSASTLLELGELKPHKKHRTRGQFGMTELKYEARKNTVVKLR
notes: Expressed as the whole protein; When co-expressed with YenB it auto-proteolyses into two fragments, and both co-elute with YenB
B4: binds [4].

B5: N-terminal portion of YenC1 (other)
chain: MNQFDSALHQGTPGVSVLDNRGHVIRELRYYRHPDTPQEIAERIAFHQYDSYGFISQSIDPRLAERRKQDSSVKPNLSYFTALSGEVLRTDGVDAGTIFSLNDIAARPAISISATGVSHTWQYEGENRPGRVLSRSEREKDREERIIERFYWAGSDASQKANNLAGQCLRHYNSAGLNQTLSIALTGTPISACFQPLLESAEPEWQGTNESAWLELLTPEIFTTYNRADANGETLVQTDAMGNIQRLAYDVAGFLKSSWLSLKGGQEQIIVKSLTYSAAGQKLQEEHGNGVLTTYSYEAETQRLIGIRTERPAGHLSGARVFQDLRYTYDPVGNVLRITNDAEATRFWRNQKVVPENTYIYDTLYQLVSANGREMANIPQQSSQLPTLSPIDNNAYTNYIRNYHYDSAGNLMQIRHTSAAANNSYTTNITVSKYSNRAVLSSLTDDVDKVEAFFDAAGRQNQLLPGQTLSWNARGELAKVTPVARDGQESDSETYRYDANSQRVSKMAIQQSNNNTQTRRVLYLAGLERRTIHQGNTLFETLLVVKIGEAGRAQVQAMHWELGQPTEVANDELRYSYDNLIGSSGLEVDGTGQLISQEEYYPYGGTAVWMARSQREASDKAYGYSGKERDATGLYYYGFRYYQPWAGRWLSADPAGTIDGLNLFRMVRNNPIVLHDPDGL
notes: Fragment left in complex with YenB after the C-terminal domain precipitated at low pH; also called YenC1 - N term; N-terminal portions of YenC
B5: binds [5].
